Measurements taken from article PMC1618392, “The crystal structure of superoxide dismutase from Plasmodium falciparum” (BMC Structural Biology, 2006).

Biological target: the molecule itself
Assay: AUC; sedimentation equilibrium, Beckman Optima XL/I, AN-50Ti rotor; 300 mM NaCl, 50 mM Tris-HCl, pH 7.5

B1: Plasmodium falciparum cytosolic iron superoxide dismutase (enzyme, Plasmodium falciparum (3D7), UniProt Q8IAY6 1-198, looked up)
chain: MVITLPKLKYALNALSPHISEETLNFHYNKHHAGYVNKLNTLIKDTPFAEKSLLDIVKESSGAIFNNAAQIWNHTFYWDSMGPDCGGEPHGEIKEKIQEDFGSFNNFKEQFSNILCGHFGSGWGWLALNNNNKLVILQTHDAGNPIKDNTGIPILTCDIWEHAYYIDYRNDRASYVKAWWNLVNWNFANENLKKAMQK
notes: cytosolic iron superoxide dismutase of Plasmodium falciparum (3D7), residues 1-198, amplified from genomic DNA; The calculated monomer mass is 23,799 Da; In the crystal Lys198 and the eight residues of the tag are not seen; also called PfFeSOD; PfSOD; source: E. coli BL21-CodonPlus, purified (Ni-NTA, Superdex 75 size exclusion)
In the case of B1, the “stoichiometry N” value is reported as 2.
